In US20090208500A1 (Genentech, published 2009):

Legend:
[1] = target: T1, human FcγRIII (F158), low affinity isotype (human, UniProt P08637 17-208); experiment: FcγR binding ELISA; relative to 2H7 control cell line antibody (2 to 4% nonfucosylated)
T1 construct: Receptor captured on plates by anti-GST (clone 8E2.1.1); also called FcγRIII (F158 allele); FcγRIIIA (F158); not shown: GST tag implied by capture on anti-GST coated plates

[2] = target: T2, human FcγRIII (V158), high affinity isotype (human, UniProt P08637 17-208); experiment: as above
T2 construct: Receptor captured by anti-GST; construct not described; also called FcγRIII (V158 allele); FcγRIIIA (V158); not shown: GST tag implied by capture on anti-GST coated plates

[3] = target: T1, human FcγRIII (F158), low affinity …; experiment: FcγRIII binding ELISA; anti-GST captured receptor, IgG complexed with anti-kappa F(ab')2; relative activity
Experimental: (§1) MaxiSorp 96-well microwell plates (Nunc, Roskilde, Denmark) were coated with 2 μg/ml anti-GST (clone 8E2.1.1, Genentech), at 100 μl/well in 50 mM carbonate buffer, pH 9.6, at 4° C. overnight. Plates were washed with PBS containing 0.05% polysorbate, pH 7.4 (wash buffer) and blocked with PBS containing 0.5% BSA, pH 7.4, at 150 μl/well. After a one-hour incubation at room temperature, plates were washed with wash buffer. Human FcγRIII was added to the plates at 0.25 μg/ml, 100 μl/well, in PBS containing 0.5% BSA, 0.05% polysorbate 20, pH 7.4. (assay buffer). The plates were incubated for one hour and washed with wash buffer. Antibodies were incubated with goat F(ab′)₂ anti-K (Cappel, ICN Pharmaceuticals, Inc., Aurora, Ohio) at a 1:2 (w/w) ratio for 1 hour to form antibody complexes. Eleven […] serial dilutions of complexed IgG antibodies (0.85-50000 ng/ml in threefold serial dilution) in assay buffer were added to the plates. After a two-hour incubation, plates were washed with wash buffer. Bound IgG was detected by adding peroxidase labeled goat F(ab′)₂ anti-human IgG F(ab′)₂ (Jackson ImmunoResearch, West Grove, Pa.) at 100 μl/well in assay buffer. After a one-hour incubation, plates were washed with wash buffer and the substrate 3,3′,5,5′-tetramethyl benzidine (TMB) (Kirkegaard & Perry Laboratories) was added at 100 μl/well. The reaction was stopped by adding 1 M phosphoric acid at 100 μl/well. Absorbance was read at 450 nm on a multiskan Ascent reader (Thermo Labsystems, Helsinki, Finland). The absorbance at the midpoint of the standard curve (mid-OD) was calculated. The corresponding concentrations of standard and samples at this mid-OD were determined from the titration curves using a four-parameter nonlinear regression curve-fitting program (KaleidaGraph, Synergy software, Reading, Pa.). The relative activity was calculated by dividing the mid-OD concentration of standard by that of sample.

[4] = target: T2, human FcγRIII (V158), high affinity …; experiment: as above
Experimental: as §1

[5] = target: T1, human FcγRIII (F158), low affinity …; experiment: FcγRIII binding ELISA; relative to control 2H7.v511 antibody pools with about 5% nonfucosylation
Experimental: as §1, with “Plates” for “MaxiSorp 96-well microwell plates (Nunc, Roskilde, Denmark) were coated with 2 μg/ml anti-GST (clone 8E2.1.1, Genentech), at 100 μl/well in 50 mM carbonate buffer, pH 9.6, at 4° C. overnight. Plates”
(§2) A FcγRIII binding assay was done with antibody 2H7.v511 containing either 65% nonfucosylation (from transient run) or 94-95% nonfucosylation (from best stable clone RNAi2.4-3d).

[6] = target: T2, human FcγRIII (V158), high affinity …; experiment: as above
Experimental: as §1, with “Plates” for “MaxiSorp 96-well microwell plates (Nunc, Roskilde, Denmark) were coated with 2 μg/ml anti-GST (clone 8E2.1.1, Genentech), at 100 μl/well in 50 mM carbonate buffer, pH 9.6, at 4° C. overnight. Plates”
as §2

T2 sequence (P08637 17-208 F176V): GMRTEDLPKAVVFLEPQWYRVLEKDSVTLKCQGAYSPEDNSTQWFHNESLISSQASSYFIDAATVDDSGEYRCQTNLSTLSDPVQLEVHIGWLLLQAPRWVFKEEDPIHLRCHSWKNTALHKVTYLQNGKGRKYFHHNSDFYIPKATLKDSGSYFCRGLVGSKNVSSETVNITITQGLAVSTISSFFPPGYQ
T1 sequence (P08637 17-208): as the sequence (P08637 17-208 F176V) above, with V160F counted along it

Binding (fold) [3]	Binding (fold) [4]	Binder	further results
–	–	humanized anti-CD20 antibody 2H7.v16, antibody pool with 35% to 37% nonfucosylation (from RNAi2 / RNAi4 transiently transfected clone #60 cells) (antibody, human IgG1, kappa, N-linked glycan at Asn297; about 35 to 37% nonfucosylated, differs only in fucose content of the Fc glycan; In the ELISA the IgG was complexed with goat F(ab')2 anti-kappa; RNAi2 and RNAi4 pools are reported together; also called 2H7 antibody pool with 35% to 37% nonfucosylation; lower fucose containing 2H7 antibodies) heavy: not shown light: DIQMTQSPSSLSASVGDRVTITCRASSSVSYMHWYQQKPGKAPKPLIYAPSNLASGVPSRFSGSGSGTDFTLTISSLQPEDFATYYCQQWSFNPPTFGQGTKVEIKRTVAAPSVFIFPPSDEQLKSGTASVVCLLNNFYPREAKVQWKVDNALQSGNSQESVTEQDSKDSTYSLSSTLTLSKADYEKHKVYACEVTHQGLSSPVTKSFNRGEC	fold increase in binding affinity [1]: 6 fold; fold increase in binding affinity [2]: 4 fold
32.4 fold	10.4 fold	humanized 2H7.v16 antibody from stable RNAi4 clone 7C (63% non-fucosylation) (antibody, human IgG1, kappa, N-linked glycan at Asn297; 63% non-fucosylation, Glycoform preparation of 2H7.v16 from clone 60 stably transfected with the RNAi4 construct) heavy: not shown light: DIQMTQSPSSLSASVGDRVTITCRASSSVSYMHWYQQKPGKAPKPLIYAPSNLASGVPSRFSGSGSGTDFTLTISSLQPEDFATYYCQQWSFNPPTFGQGTKVEIKRTVAAPSVFIFPPSDEQLKSGTASVVCLLNNFYPREAKVQWKVDNALQSGNSQESVTEQDSKDSTYSLSSTLTLSKADYEKHKVYACEVTHQGLSSPVTKSFNRGEC	–
–	–	humanized anti-CD20 antibody 2H7.v511 containing 65% nonfucosylation (from transient run) (antibody, human IgG1, kappa, N-linked glycan at Asn297; 65% nonfucosylation, In the ELISA the IgG was complexed with goat F(ab')2 anti-kappa; also called hu2H7.v511; v511-NF) heavy: EVQLVESGGGLVQPGGSLRLSCAASGYTFTSYNMHWVRQAPGKGLEWVGAIYPGNGATSYNQKFKGRFTISVDKSKNTLYLQMNSLRAEDTAVYYCARVVYYSYRYWYFDVWGQGTLVTVSSASTKGPSVFPLAPSSKSTSGGTAALGCLVKDYFPEPVTVSWNSGALTSGVHTFPAVLQSSGLYSLSSVVTVPSSSLGTQTYICNVNHKPSNTKVDKKVEPKSCDKTHTCPPCPAPELLGGPSVFLFPPKPKDTLMISRTPEVTCVVVDVSHEDPEVKFNWYVDGVEVHNAKTKPREEQYNATYRVVSVLTVLHQDWLNGKEYKCKVSNAALPAPIAATISKAKGQPREPQVYTLPPSREEMTKNQVSLTCLVKGFYPSDIAVEWESNGQPENNYKTTPPVLDSDGSFFLYSKLTVDKSRWQQGNVFSCSVMHEALHNHYTQKSLSLSPGK light: DIQMTQSPSSLSASVGDRVTITCRASSSVSYLHWYQQKPGKAPKPLIYAPSNLASGVPSRFSGSGSGTDFTLTISSLQPEDFATYYCQQWAFNPPTFGQGTKVEIKRTVAAPSVFIFPPSDEQLKSGTASVVCLLNNFYPREAKVQWKVDNALQSGNSQESVTEQDSKDSTYSLSSTLTLSKADYEKHKVYACEVTHQGLSSPVTKSFNRGEC	fold increase in affinity [5]: 6.2 fold; fold increase in affinity [6]: 4.8 fold
34 fold	10.1 fold	humanized 2H7.v16 antibody from stable RNAi4 clone 6C (60% non-fucosylation) (antibody, human IgG1, kappa, N-linked glycan at Asn297; 60% non-fucosylation, Glycoform preparation of 2H7.v16 from clone 60 stably transfected with the RNAi4 construct) heavy: not shown light: DIQMTQSPSSLSASVGDRVTITCRASSSVSYMHWYQQKPGKAPKPLIYAPSNLASGVPSRFSGSGSGTDFTLTISSLQPEDFATYYCQQWSFNPPTFGQGTKVEIKRTVAAPSVFIFPPSDEQLKSGTASVVCLLNNFYPREAKVQWKVDNALQSGNSQESVTEQDSKDSTYSLSSTLTLSKADYEKHKVYACEVTHQGLSSPVTKSFNRGEC	–
24.2 fold	7.5 fold	humanized 2H7.v16 antibody from stable RNAi4 clone 5B (45% non-fucosylation) (antibody, human IgG1, kappa, N-linked glycan at Asn297; 45% non-fucosylation, Glycoform preparation of 2H7.v16 from clone 60 stably transfected with the RNAi4 construct) heavy: not shown light: DIQMTQSPSSLSASVGDRVTITCRASSSVSYMHWYQQKPGKAPKPLIYAPSNLASGVPSRFSGSGSGTDFTLTISSLQPEDFATYYCQQWSFNPPTFGQGTKVEIKRTVAAPSVFIFPPSDEQLKSGTASVVCLLNNFYPREAKVQWKVDNALQSGNSQESVTEQDSKDSTYSLSSTLTLSKADYEKHKVYACEVTHQGLSSPVTKSFNRGEC	–
1 fold	1 fold	humanized 2H7.v16 antibody from clone 'Control' of Table 1 (3% non-fucosylation) (antibody, human IgG1, kappa, N-linked glycan at Asn297; 3% non-fucosylation) heavy: not shown light: DIQMTQSPSSLSASVGDRVTITCRASSSVSYMHWYQQKPGKAPKPLIYAPSNLASGVPSRFSGSGSGTDFTLTISSLQPEDFATYYCQQWSFNPPTFGQGTKVEIKRTVAAPSVFIFPPSDEQLKSGTASVVCLLNNFYPREAKVQWKVDNALQSGNSQESVTEQDSKDSTYSLSSTLTLSKADYEKHKVYACEVTHQGLSSPVTKSFNRGEC	–
1 fold	1 fold	humanized 2H7.v16 antibody from clone 'Parent' of Table 1 (5% non-fucosylation) (antibody, human IgG1, kappa, N-linked glycan at Asn297; 5% non-fucosylation) heavy: not shown light: DIQMTQSPSSLSASVGDRVTITCRASSSVSYMHWYQQKPGKAPKPLIYAPSNLASGVPSRFSGSGSGTDFTLTISSLQPEDFATYYCQQWSFNPPTFGQGTKVEIKRTVAAPSVFIFPPSDEQLKSGTASVVCLLNNFYPREAKVQWKVDNALQSGNSQESVTEQDSKDSTYSLSSTLTLSKADYEKHKVYACEVTHQGLSSPVTKSFNRGEC	–
–	–	humanized anti-CD20 antibody 2H7.v511 containing 94-95% nonfucosylation (from best stable clone RNAi2.4-3d) (antibody, human IgG1, kappa, N-linked glycan at Asn297; 94-95% nonfucosylation, In the ELISA the IgG was complexed with goat F(ab')2 anti-kappa; also called hu2H7.v511; 95% nonfucosylated material) heavy: EVQLVESGGGLVQPGGSLRLSCAASGYTFTSYNMHWVRQAPGKGLEWVGAIYPGNGATSYNQKFKGRFTISVDKSKNTLYLQMNSLRAEDTAVYYCARVVYYSYRYWYFDVWGQGTLVTVSSASTKGPSVFPLAPSSKSTSGGTAALGCLVKDYFPEPVTVSWNSGALTSGVHTFPAVLQSSGLYSLSSVVTVPSSSLGTQTYICNVNHKPSNTKVDKKVEPKSCDKTHTCPPCPAPELLGGPSVFLFPPKPKDTLMISRTPEVTCVVVDVSHEDPEVKFNWYVDGVEVHNAKTKPREEQYNATYRVVSVLTVLHQDWLNGKEYKCKVSNAALPAPIAATISKAKGQPREPQVYTLPPSREEMTKNQVSLTCLVKGFYPSDIAVEWESNGQPENNYKTTPPVLDSDGSFFLYSKLTVDKSRWQQGNVFSCSVMHEALHNHYTQKSLSLSPGK light: DIQMTQSPSSLSASVGDRVTITCRASSSVSYLHWYQQKPGKAPKPLIYAPSNLASGVPSRFSGSGSGTDFTLTISSLQPEDFATYYCQQWAFNPPTFGQGTKVEIKRTVAAPSVFIFPPSDEQLKSGTASVVCLLNNFYPREAKVQWKVDNALQSGNSQESVTEQDSKDSTYSLSSTLTLSKADYEKHKVYACEVTHQGLSSPVTKSFNRGEC	fold increase in affinity [5]: 9.8 fold; fold increase in affinity [6]: 6.8 fold
52.4 fold	13.7 fold	humanized 2H7.v16 antibody from stable RNAi4 clone 5F (70% non-fucosylation) (antibody, human IgG1, kappa, N-linked glycan at Asn297; 70% non-fucosylation, Glycoform preparation of 2H7.v16 from clone 60 stably transfected with the RNAi4 construct) heavy: not shown light: DIQMTQSPSSLSASVGDRVTITCRASSSVSYMHWYQQKPGKAPKPLIYAPSNLASGVPSRFSGSGSGTDFTLTISSLQPEDFATYYCQQWSFNPPTFGQGTKVEIKRTVAAPSVFIFPPSDEQLKSGTASVVCLLNNFYPREAKVQWKVDNALQSGNSQESVTEQDSKDSTYSLSSTLTLSKADYEKHKVYACEVTHQGLSSPVTKSFNRGEC	–
